Assay results published in patent US8129557B2, “Phosphonic acid diester derivative and method for producing thereof” (priority 2005, dated 2012).

Tested on: T1, Cc1cc(=O)oc2cc(NC(=O)CC[C@H](N)C(=O)O)ccc12
T1 construct: purchased Asahi Kasei Co., Ltd. HC-GTP (lot 603AA)
Experiment: Hydrolytic assay of human GGT (Michaelis constant of substrate)
Assay type: biochemical
Conditions: other: human GGT, substrate concentration 4.0 μM
Experimental: In the experiment, at first, Michaelis constants (Km) for 7-(γ-L-glutamylamino)-4-methylcoumarin as substrate were measured by a fluorescence method [Smith, G. D.; Ding, J. L.; Peters, T. J. Anal. Biochem. 100, 136-139 (1979)] for the hydrolytic activities of E-coli GGT and human GGT.
In the hydrolytic assay of human GGT, the measurement was carried out in the same manner as that in the hydrolytic assay of E-coli GGT, except that the substrate concentration was changed to […] and therefore, the explanation of the common portions was omitted.

Sequence of human GGT (Homo sapiens) (chain, as listed by the source): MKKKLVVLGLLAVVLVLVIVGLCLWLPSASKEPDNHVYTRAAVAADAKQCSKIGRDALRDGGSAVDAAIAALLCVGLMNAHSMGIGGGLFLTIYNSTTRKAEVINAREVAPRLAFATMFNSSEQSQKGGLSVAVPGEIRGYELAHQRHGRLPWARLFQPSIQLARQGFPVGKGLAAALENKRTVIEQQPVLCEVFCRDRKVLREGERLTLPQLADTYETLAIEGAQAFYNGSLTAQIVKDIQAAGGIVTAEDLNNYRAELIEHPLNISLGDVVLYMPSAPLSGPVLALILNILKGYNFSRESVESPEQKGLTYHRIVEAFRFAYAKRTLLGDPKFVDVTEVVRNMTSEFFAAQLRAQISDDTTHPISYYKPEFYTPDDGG
Sequence of human GGT (Homo sapiens) (chain, as listed by the source): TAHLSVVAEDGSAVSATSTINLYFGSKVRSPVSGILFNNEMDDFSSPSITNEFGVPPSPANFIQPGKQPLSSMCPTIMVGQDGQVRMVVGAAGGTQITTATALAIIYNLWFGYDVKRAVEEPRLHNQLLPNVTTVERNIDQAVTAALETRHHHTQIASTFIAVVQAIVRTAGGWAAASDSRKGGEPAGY

Question: With human GGT (Homo sapiens) as the substance, how does the Km read?
Answer: 12.6 µM
